In patent US20150118700:

T1: α-fructosyl hexapeptide (α-fructosyl-valyl-histidyl-leucyl-threonyl-propyl-glutamic acid)
T1 chain: VHLTPE


Target: T1, α-fructosyl hexapeptide …

Protein	αF6P oxidation activity ratio, relative to CFP-T7-H2 designated to be 100 (relative (CFP-T7-H2 = 100))	αF6P oxidation activity ratio, relative to CFP-T7-H6 designated to be 100 (relative (CFP-T7-H6 = 100))	also measured
CFP-T7-H2-62Q (protein) MTSNRADTRVIVVGGGGTIGSSTALHLVRSGYAPANITVLDTFEIPSAQSAGHDLNKIMGIQLRNKVDLQMSLEARQMWKEDELFQPFFHNTGRMDCEHTPEGIEDLKKLYQALHDAGAGLEKTHAWLDNEDEILSKMPLLQRDQIQGWKAIWSQDGGWLAAAKAINAIGQFLKERGVKFGFGGAGSFKQPLFDDEGTTCIGVETADGTKYYADKVVLAAGAWSPTLVDLEDQCCSKAWVYAHIQLTPEEAAEYKGVPVVYNGEFGFFFEPDEFGVIKVCDEFPGFSRFKEHQPYGAPSPKRISVPRSHAKHPTDTYPDASEVSIKKAIATFLPRFQDKELFNRALCWCTDTADAALLMCEHPKWKNFILATGDSGHSFKILPNVGKYVVELIEGRLPEEMAYQWRWRPGGDALKSRRAAPPKDLADMPGWKHDPKL	11	–	–
CFP-T7-H8 (protein) MTSNRADTRVIVVGGGGTIGSSTALHLVRSGYAPANITVLDTFEIPSAQSAGHDLNKIMGIDLENKVDLQMSLEARQMWKEDELFQPFFHNTGRMDCEHTPEGIEDLKKLYQALHDAGAGLEKTHAWLDNEDEILSKMPLLQRDQIQGWKAIWSQDGGWLAAAKAINAIGQFLKERGVKFGFGGAGSFKQPLFDDEGTTCIGVETADGTKYYADKVVLAAGAWSPTLVDLEDQCCSKAWVYAHIQLTPEEAAEYKGVPVVYNGEFGFFFEPDEFGVIKVCDEFPGFSRFKEHQPYGAPSPKRISVPRSHAKHPTDTYPDASEVSIKKAIATFLPRFQDKELFNRALCWCTDTADAALLMCEHPKWKNFILATGDSGHSFKILPNVGKYVVELIEGRLPEEMAYQWRWRPGGDALKSRRAAPPKDLADMPGWKHDPKL	–	2	–
CFP-T7-H6 (protein) MTSNRADTRVIVVGGGGTIGSSTALHLVRSGYAPANITVLDTFEIPSAQSAGHDLNKIMGIDLRNKVDLQMSLEARQMWKEDELFQPFFHNTGRMDCEHTPEGIEDLKKLYQALHDAGAGLEKTHAWLDNEDEILSKMPLLQRDQIQGWKAIWSQDGGWLAAAKAINAIGQFLKERGVKFGFGGAGSFKQPLFDDEGTTCIGVETADGTKYYADKVVLAAGAWSPTLVDLEDQCCSKAWVYAHIQLTPEEAAEYKGVPVVYNGEFGFFFEPDEFGVIKVCDEFPGFSRFKEHQPYGAPSPKRISVPRSHAKHPTDTYPDASEVSIKKAIATFLPRFQDKELFNRALCWCTDTADAALLMCEHPKWKNFILATGDSGHSFKILPNVGKYVVELIEGRLPEEMAYQWRWRPGGDALKSRRAAPPKDLADMPGWKHDPKL	513	–	αF6P oxidation activity ratio (reference, designated to be 100) (relative (CFP-T7-H6 = 100)): 100; αF6P oxidation activity, relative to αFVH oxidation activity designated to be 100 (relative (αFVH = 100)): 3
CFP-T7-H7 (protein) MTSNRADTRVIVVGGGGTIGSSTALHLVRSGYAPANITVLDTFEIPSAQSAGHDLNKIMGIDLANKVDLQMSLEARQMWKEDELFQPFFHNTGRMDCEHTPEGIEDLKKLYQALHDAGAGLEKTHAWLDNEDEILSKMPLLQRDQIQGWKAIWSQDGGWLAAAKAINAIGQFLKERGVKFGFGGAGSFKQPLFDDEGTTCIGVETADGTKYYADKVVLAAGAWSPTLVDLEDQCCSKAWVYAHIQLTPEEAAEYKGVPVVYNGEFGFFFEPDEFGVIKVCDEFPGFSRFKEHQPYGAPSPKRISVPRSHAKHPTDTYPDASEVSIKKAIATFLPRFQDKELFNRALCWCTDTADAALLMCEHPKWKNFILATGDSGHSFKILPNVGKYVVELIEGRLPEEMAYQWRWRPGGDALKSRRAAPPKDLADMPGWKHDPKL	–	17	–
CFP-T7-H10 (protein) MTSNRADTRVIVVGGGGTIGSSTALHLVRSGYAPANITVLDTFEIPSAQSAGHDLNKIMGIDLRNKVDLQMSLEARQMWKEDELFQPFFHNTGRMDCEHTPEGIEALKKLYQALHDAGAGLEKTHAWLDNEDEILSKMPLLQRDQIQGWKAIWSQDGGWLAAAKAINAIGQFLKERGVKFGFGGAGSFKQPLFDDEGTTCIGVETADGTKYYADKVVLAAGAWSPTLVDLEDQCCSKAWVYAHIQLTPEEAAEYKGVPVVYNGEFGFFFEPDEFGVIKVCDEFPGFSRFKEHQPYGAPSPKRISVPRSHAKHPTDTYPDASEVSIKKAIATFLPRFQDKELFNRALCWCTDTADAALLMCEHPKWKNFILATGDSGHSFKILPNVGKYVVELIEGRLPEEMAYQWRWRPGGDALKSRRAAPPKDLADMPGWKHDPKL	–	301	–
CFP-T7-H2-62E (protein) MTSNRADTRVIVVGGGGTIGSSTALHLVRSGYAPANITVLDTFEIPSAQSAGHDLNKIMGIELRNKVDLQMSLEARQMWKEDELFQPFFHNTGRMDCEHTPEGIEDLKKLYQALHDAGAGLEKTHAWLDNEDEILSKMPLLQRDQIQGWKAIWSQDGGWLAAAKAINAIGQFLKERGVKFGFGGAGSFKQPLFDDEGTTCIGVETADGTKYYADKVVLAAGAWSPTLVDLEDQCCSKAWVYAHIQLTPEEAAEYKGVPVVYNGEFGFFFEPDEFGVIKVCDEFPGFSRFKEHQPYGAPSPKRISVPRSHAKHPTDTYPDASEVSIKKAIATFLPRFQDKELFNRALCWCTDTADAALLMCEHPKWKNFILATGDSGHSFKILPNVGKYVVELIEGRLPEEMAYQWRWRPGGDALKSRRAAPPKDLADMPGWKHDPKL	21	–	–
CFP-T7-H2 (protein) MTSNRADTRVIVVGGGGTIGSSTALHLVRSGYAPANITVLDTFEIPSAQSAGHDLNKIMGIALRNKVDLQMSLEARQMWKEDELFQPFFHNTGRMDCEHTPEGIEDLKKLYQALHDAGAGLEKTHAWLDNEDEILSKMPLLQRDQIQGWKAIWSQDGGWLAAAKAINAIGQFLKERGVKFGFGGAGSFKQPLFDDEGTTCIGVETADGTKYYADKVVLAAGAWSPTLVDLEDQCCSKAWVYAHIQLTPEEAAEYKGVPVVYNGEFGFFFEPDEFGVIKVCDEFPGFSRFKEHQPYGAPSPKRISVPRSHAKHPTDTYPDASEVSIKKAIATFLPRFQDKELFNRALCWCTDTADAALLMCEHPKWKNFILATGDSGHSFKILPNVGKYVVELIEGRLPEEMAYQWRWRPGGDALKSRRAAPPKDLADMPGWKHDPKL	–	–	αF6P oxidation activity ratio (reference, designated to be 100) (relative (CFP-T7-H2 = 100)): 100; αF6P oxidation activity, relative to αFVH oxidation activity designated to be 100 (relative (αFVH = 100)): 0.0735
CFP-T7-H9 (protein) MTSNRADTRVIVVGGGGTIGSSTALHLVRSGYAPANITVLDTFEIPSAQSAGHDLNKIMGIDLHNKVDLQMSLEARQMWKEDELFQPFFHNTGRMDCEHTPEGIEDLKKLYQALHDAGAGLEKTHAWLDNEDEILSKMPLLQRDQIQGWKAIWSQDGGWLAAAKAINAIGQFLKERGVKFGFGGAGSFKQPLFDDEGTTCIGVETADGTKYYADKVVLAAGAWSPTLVDLEDQCCSKAWVYAHIQLTPEEAAEYKGVPVVYNGEFGFFFEPDEFGVIKVCDEFPGFSRFKEHQPYGAPSPKRISVPRSHAKHPTDTYPDASEVSIKKAIATFLPRFQDKELFNRALCWCTDTADAALLMCEHPKWKNFILATGDSGHSFKILPNVGKYVVELIEGRLPEEMAYQWRWRPGGDALKSRRAAPPKDLADMPGWKHDPKL	–	44	–
